Test results: patent publication US20210095014A1 (NGM BIOPHARMACEUTICALS, published 2021)

Tests used:
[1] = target: T1, SE1 peptide of human ANGPTL8 (amino acids 25-60) (human); experiment: BIACORE (SPR); humanized antibody Hz1E5
T1 construct: also called hSE1; hSE1 peptide
T1 peptide: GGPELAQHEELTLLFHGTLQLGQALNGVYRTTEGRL

[2] = target: T1, SE1 peptide of human ANGPTL8 (amino …); experiment: BIACORE (SPR), antibody from hybridoma supernatant captured by anti-mouse Fc, peptide injected, 25 C
Description: (§1) The binding affinities of antibodies 1E5, 1A8, and 1E9 to human ANGPTL8 were measured using a BIACORE system (GE Healthcare LifeSciences). Briefly, anti-mouse Fc antibody (Sigma-Aldrich) was immobilized on all four flow cells of a CM5 chip using amine coupling reagents (GE Healthcare LifeSciences). Antibody from hybridoma supernatants were captured on flow cells 2, 3, and 4 using flow cell 1 as a reference. The SE1 peptide of human ANGPTL8 (hSE1; SEQ ID NO:6), a corresponding SE1 peptide of cynomolgus monkey ANGPTL8 (cSE1; SEQ ID NO:67), or human ANGPTL8 was injected at a flow rate of 50 μL/min at 25° C. Kinetic data were collected over time and fit using the simultaneous global fit equation to yield affinity constants (KD values) for each antibody.
(§2) Assay results are shown in Table 4 and the BIACORE result for 1E5 binding to hANGPTL8 (NusA-hANGPTL8 fusion protein) is shown in FIG. 4.

[3] = target: T2, SE1 peptide of cynomolgus monkey ANGPTL8 (amino acids 25-60) (cynomolgus monkey); experiment: as above
T2 construct: also called cSE1; cSE1 peptide
T2 peptide: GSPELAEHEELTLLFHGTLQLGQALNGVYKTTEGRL
Description: as §1, §2

[4] = target: T3, NusA-hANGPTL8 fusion protein (human, UniProt Q6UXH0 22-198); experiment: BIACORE (SPR), antibody from hybridoma supernatant captured by anti-mouse Fc, NusA-hANGPTL8 injected, 25 C
T3 construct: Expressed in E. coli BL21 and captured on a chelating Sepharose column; also called hANGPTL8 (NusA-hANGPTL8 fusion protein); not shown: bacterial NusA protein, fusion partner
T3 sequence: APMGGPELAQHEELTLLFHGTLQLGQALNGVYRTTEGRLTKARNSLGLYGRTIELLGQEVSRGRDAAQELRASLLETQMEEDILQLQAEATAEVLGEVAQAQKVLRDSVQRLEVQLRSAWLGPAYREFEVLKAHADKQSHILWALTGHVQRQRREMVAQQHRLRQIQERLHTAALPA
Description: as §1, §2

[5] = target: T1, SE1 peptide of human ANGPTL8 (amino …); experiment: BIACORE (SPR); chimeric 1E5 (murine variable regions, human Fc)

B1: humanized anti-ANGPTL8 antibody Hz1E5 (antibody, human IgG1, kappa, V domains shown)
VH: EVQLVQSGAEVKKPGSSVKVSCKASGYTFTDYTIHWVRQAPGQGLEWMGWFYPGSDNIKYNAKFKDRATLTADKSTSTAYMELSSLRSEDTAVYYCARHEAFSYYDVAWFAYWGQGTLVTVSS
VL: DVVMTQTPLSLPVTPGEPASISCRSSQSLVHSNGNTYLHWYLQKPGQSPQLLIYTVSNRFSGVPDRFSGSGSGSDFTLKISRVEAEDVGVYFCSQTTHFPYTFGQGTKVEIKR
notes: also called Hz1E5.A1
How did the Kd [1] turn out when B1 was run?
Its Kd is 0.9 nM.

B2: anti-ANGPTL8 antibody 1E5 (antibody, V domains shown)
VH: QVQLQQSGAELVKPGTSVRLSCKASGYTFTDYTIHWVKLRSGQGLEWIGWFYPGSDNIKYNAKFKDKATLTADKSSSTVYMDLGRLTSEDSAVYFCARHEAFSYYDVAWFAYWGQGTLVTVSA
VL: DVVMTQTPLSLPVSLGDQASISCRSSQSLVHSNGNTYLHWYLQKPGQSPKLLIYTVSNRFSGVPDRFSGSGSGSDFTLNFSRVEAEDLGVYFCSQTTHFPYTFGGGTKLEIK
notes: Mouse monoclonal antibody, tested from hybridoma supernatant and captured by anti-mouse Fc; also called parental 1E5 from hybridoma
Which Kd [2] does the source give for B2 here?
The Kd was 0.41 nM.

And the Kd [3]?
The Kd was 0.67 nM.

And the Kd [4]?
Its Kd is 0.44 nM.

B3: chimeric 1E5 antibody (antibody, V domains shown)
VH: QVQLQQSGAELVKPGTSVRLSCKASGYTFTDYTIHWVKLRSGQGLEWIGWFYPGSDNIKYNAKFKDKATLTADKSSSTVYMDLGRLTSEDSAVYFCARHEAFSYYDVAWFAYWGQGTLVTVSA
VL: DVVMTQTPLSLPVSLGDQASISCRSSQSLVHSNGNTYLHWYLQKPGQSPKLLIYTVSNRFSGVPDRFSGSGSGSDFTLNFSRVEAEDLGVYFCSQTTHFPYTFGGGTKLEIK
notes: Contains 'the murine variable regions of 1E5 and a human Fc region'; also called chimeric antibody 1E5
For B3, which Kd [5] is on record?
The Kd was 0.35 nM.

B4: anti-ANGPTL8 antibody 1A8 (antibody, V domains shown)
VH: QVQLQQSGAELVKPGASVKLSCKASGYTFTDYTIHWVKQRSGQGLEWIGWFYPGSDNIKYNEKFKDKATLTADKSSSIVYMELSRLTSEDSAVYFCARHEAYYVYDVAWFAYWGQGTLVTVSA
VL: DVVMTQTPLSLPVSLGDQASISCSSSQSLVHSNGNTFLHWFLQRPGQSPKLLIYTVSNRFSGVPDRFSGSGSGTDFTLKISRVEAEDLGVYFCSQSTHFPYTFGGGTTLEIK
notes: Mouse monoclonal antibody, tested from hybridoma supernatant and captured by anti-mouse Fc
What does the source list for B4?
Kd [2]: 0.8 nM; Kd [3]: 1.04 nM; Kd [4]: 2.5 nM

B5: anti-ANGPTL8 antibody 1E9 (antibody, V domains shown)
VH: QVQLQQSGTELVKPGASVKLSCKASGYTFTDYTIHWVKQRSGQGLEWIGWFYPGSDNIKFNAKFRDKATLTADKSSSTVYMELSRLTSEDSAVYFCARHEAFYVYDVAWFANWGQGTLVTVST
VL: DVVMTQTPLSLPVSLGDQASISCRSSQSLVHSNGNTYLHWFLQKPGQSPNLLIYTVSNRFSGVPDRFSGSGSGTDFTLKISRVEAGDLGVYFCSQSTHFPYTFGGGTKLEIK
notes: as for B4
B5 was tested. Which Kd [2] did it give?
The Kd was 0.92 nM.

What about the Kd [3] of the same binder?
Its Kd is 1.8 nM.

What about the Kd [4] of the same binder?
The Kd was 2.1 nM.
